In US20020068706A1 (GPC BIOTECH, published 2002):

How the values were obtained:
CDK4/cyclin D1 complex [1] = target: T1, CDK4/cyclin D1 complex (UniProt P11802 1-303; P24385 1-295); assay: cell-based or functional assay
CDK2/cyclin E complex = CDK2/cyclin E complex (UniProt P24941 1-298); assay: cell-based or functional assay
CDK2/cyclin A complex = CDK2/cyclin A complex (UniProt P24941 1-298); assay: cell-based or functional assay
cdc2/cyclin B complex = cdc2/cyclin B complex (UniProt P06493 1-297); assay: cell-based or functional assay
cdc2/cyclin B complex, sequence (P06493 whole entry, one chain of several): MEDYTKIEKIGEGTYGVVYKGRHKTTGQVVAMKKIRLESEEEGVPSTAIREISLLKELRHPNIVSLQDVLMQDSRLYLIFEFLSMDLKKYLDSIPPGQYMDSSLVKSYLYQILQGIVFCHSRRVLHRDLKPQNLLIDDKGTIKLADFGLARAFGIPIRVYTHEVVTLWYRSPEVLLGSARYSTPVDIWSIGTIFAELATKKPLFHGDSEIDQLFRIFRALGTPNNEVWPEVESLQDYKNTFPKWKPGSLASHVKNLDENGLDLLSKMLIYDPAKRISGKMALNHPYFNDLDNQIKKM

CDK4/cyclin D1 complex [2] = target: T1, CDK4/cyclin D1 complex; assay: inhibition constant from in vitro kinase assay (Sf9 extract, Gst-Rb substrate)

T1 sequence (P11802 whole entry, chain 1 of 2): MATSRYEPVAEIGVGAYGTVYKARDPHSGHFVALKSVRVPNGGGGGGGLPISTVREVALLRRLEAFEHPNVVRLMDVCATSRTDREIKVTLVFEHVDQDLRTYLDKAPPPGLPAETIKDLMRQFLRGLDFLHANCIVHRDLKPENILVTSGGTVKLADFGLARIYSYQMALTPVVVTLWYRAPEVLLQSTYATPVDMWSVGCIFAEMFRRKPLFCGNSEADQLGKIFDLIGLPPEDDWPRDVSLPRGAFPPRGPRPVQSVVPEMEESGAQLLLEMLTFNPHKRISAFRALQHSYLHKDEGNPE
T1 sequence (P24385 whole entry, chain 2 of 2): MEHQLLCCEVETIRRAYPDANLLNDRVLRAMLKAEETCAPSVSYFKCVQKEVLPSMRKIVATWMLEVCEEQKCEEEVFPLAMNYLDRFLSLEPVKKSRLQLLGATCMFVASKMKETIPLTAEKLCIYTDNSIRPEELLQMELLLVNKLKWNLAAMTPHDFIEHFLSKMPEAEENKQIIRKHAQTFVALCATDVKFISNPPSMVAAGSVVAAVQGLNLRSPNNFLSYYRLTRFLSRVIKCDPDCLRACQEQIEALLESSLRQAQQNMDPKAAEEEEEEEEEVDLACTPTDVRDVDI

B1: p16 (other, human, UniProt P42771 1-156, looked up)
chain: MEPAAGSSMEPSADWLATAAARGRVEEVRALLEAGALPNAPNSYGRRPIQVMMMGSARVAELLLLHGAEPNCADPATLTRPVHDAAREGFLDTLVVLHRAGARLDVRDAWGRLPVDLAEELGHRDVARYLRAAAGGTRGSNHARIDAAEGPSDIPD
notes: also called p16^Ink4/MTS1; p16^INK4A
Q: Which results are given for B1?
A: IC50 of in vitro kinase assay (32P incorporation into Gst-Rb) (CDK4/cyclin D1 complex [1]): 250 nM; IC50 of in vitro kinase assay (32P incorporation into Gst-Rb) (CDK2/cyclin E complex): > 500 nM; IC50 of in vitro kinase assay (32P incorporation into Gst-Rb) (CDK2/cyclin A complex): > 500 nM; IC50 of in vitro kinase assay (32P incorporation into Gst-Rb) (cdc2/cyclin B complex): > 500 nM; Ki (CDK4/cyclin D1 complex [2]): 75 nM
